Results taken from patent publication US20230265151A1, “GIP/GLP1 CO-AGONIST COMPOUNDS” (priority 2020, published 2023).
Positions count from the first letter of the chain named. *1 amine or outer side, *2 acyl side, *3 side chain or, on linkers, in order; H or OH if unused. Where no end group is shown, it is not given here. Side-chain parts run from the residue outwards. [ ]: non-standard residue; d: D form. The star is where a group is joined. Decanoyl(10-(4-HOOC-PhO)) = O=C(O)c1ccc(OCCCCCCCCCC(=O)*)cc1; αMePhe(2-F) = C[C@](N)(Cc1ccccc1F)C(=O)O; γGlu = O=C(O)[C@H](CCC(=O)[*:2])N[*:1]; C14 diacid = O=C(O)CCCCCCCCCCCCC(=O)*; αMeY = C[C@](N)(Cc1ccc(O)cc1)C(=O)O; αMeL = CC(C)C[C@](C)(N)C(=O)O; Orn = NCCC[C@H](N)C(=O)O; AEEA = NCCOCCOCC(=O)O; Aib = CC(C)(N)C(=O)O

T1: human GIP receptor (human, UniProt P48546 22-466)
T1 sequence (looked up): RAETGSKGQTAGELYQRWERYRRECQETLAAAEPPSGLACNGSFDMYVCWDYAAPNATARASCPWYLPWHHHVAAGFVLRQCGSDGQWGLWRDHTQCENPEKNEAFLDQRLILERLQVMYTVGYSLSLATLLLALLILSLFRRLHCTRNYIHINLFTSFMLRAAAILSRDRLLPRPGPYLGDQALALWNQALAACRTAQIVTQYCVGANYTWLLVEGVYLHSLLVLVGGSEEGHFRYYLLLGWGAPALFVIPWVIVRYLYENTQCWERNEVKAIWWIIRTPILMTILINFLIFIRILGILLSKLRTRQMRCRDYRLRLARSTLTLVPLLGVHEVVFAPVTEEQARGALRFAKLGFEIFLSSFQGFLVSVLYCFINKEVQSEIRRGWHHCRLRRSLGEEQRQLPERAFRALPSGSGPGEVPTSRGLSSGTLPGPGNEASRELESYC

B1: Example 444 (peptide)
peptide: YXEGTXTSDXXIXLDXQAQXXFIKXLIKGGPSSGAPPPS
modifications: Y-Aib-EGT-αMeF(2F)-TSD-4Pal-Aib-I-αMeL-LD-Orn-QAQ-Aib-4Pal-FIK((2-[2-(2-Amino-ethoxy)-ethoxy]-acetyl)2-(γ-Glu)-CO-(CH2)12-CO2H)-αMeY-LIK((2-[2-(2-Amino-ethoxy)-ethoxy]-acetyl)2-(γ-Glu)-CO-(CH2)12-CO2H)GGPSSGAPPPS-NH2
B2: Example 443 (peptide)
peptide: B1 peptide
modifications: Y-Aib-EGT-αMeF(2F)-TSD-4Pal-Aib-I-αMeL-LD-Orn-QAQ-Aib-Orn-FIK((2-[2-(2-Amino-ethoxy)-ethoxy]-acetyl)2-(γ-Glu)-CO-(CH2)14-CO2)-αMeY-LIK((2-[2-(2-Amino-ethoxy)-ethoxy]-acetyl)2-(γ-Glu)-CO-(CH2)14-CO2)GGPSSGAPPPS-NH2
B3: Example 401 (peptide)
peptide: B1 peptide with X10Y
modifications: Y-Aib-EGT-αMeF(2F)-TSDY-Aib-I-αMeL-LD-Orn-QAQ-Aib-Orn-FIK((2-[2-(2-Amino-ethoxy)-ethoxy]-acetyl)2-(γ-Glu)-CO-(CH2)12-CO2H)-αMeY-LIK((2-[2-(2-Amino-ethoxy)-ethoxy]-acetyl)2-(γ-Glu)-CO-(CH2)12-CO2H)GGPSSGAPPPS-NH2
B4: Example 453 (peptide)
peptide: B1 peptide
modifications: Y-Aib-EGT-αMeF(2F)-TSD-4Pal-Aib-I-αMeL-LD-Orn-QAQ-Aib-Orn-FIK((2-[2-(2-Amino-ethoxy)-ethoxy]-acetyl)-Ahx-(γ-Glu)-(10-(4-carboxyphenoxy)decanoyl))-αMeY-LIK((2-[2-(2-Amino-ethoxy)-ethoxy]-acetyl)-Ahx-(γ-Glu)-(10-(4-carboxyphenoxy)decanoyl))GGPSSGAPPPS-NH2
B5: Example 402 (peptide)
peptide: B1 peptide with X10Y, X21E
modifications: Y-Aib-EGT-αMeF(2F)-TSDY-Aib-I-αMeL-LD-Orn-QAQ-Aib-EFIK((2-[2-(2-Amino-ethoxy)-ethoxy]-acetyl)2-(γ-Glu)-(10-(4-carboxyphenoxy)decanoyl))-αMeY-LIK((2-[2-(2-Amino-ethoxy)-ethoxy]-acetyl)2-(γ-Glu)-(10-(4-carboxyphenoxy)decanoyl))GGPSSGAPPPS-NH2
B6: Example 452 (peptide)
peptide: B1 peptide
modifications: not fully specified; Y-Aib-EGT-αMeF(2F)-TSD-4Pal-Aib-I-αMeL-LD-Orn-QAQ-Aib-Orn-FIK(Aoc-(2-[2-(2-Amino-ethoxy)-ethoxy]-acetyl)-(γ-Glu)-CO-(CH2)12-CO2)-αMeY-LIK(Aoc-(2-[2-(2-Amino-ethoxy)-ethoxy]-acetyl)-(γ-Glu)-CO-(CH2)12-CO2)GGPSSGAPPPS-NH2
B7: Example 454 (peptide)
peptide: B1 peptide
modifications: not fully specified; Y-Aib-EGT-αMeF(2F)-TSD-4Pal-Aib-I-αMeL-LD-Orn-QAQ-Aib-Orn-FIK((2-[2-(2-Amino-ethoxy)-ethoxy]10-(4-carboxyphenoxy)decanoyl))-αMeY-LIK((2-[2-(2-Amino-ethoxy)-ethoxy]-acetyl)-Aoc-(γ-Glu)-(10-(4-carboxyphenoxy)decanoyl))GGPSSGAPPPS-NH2
B8: Example 440 (peptide)
peptide: B1 peptide
modifications: Y-Aib-EGT-αMeF(2F)-TSD-4Pal-Aib-I-αMeL-LD-Orn-QAQ-Aib-Orn-FIK((2-[2-(2-Amino-ethoxy)-ethoxy]-acetyl)2-(γ-Glu)-(10-(4-carboxyphenoxy)decanoyl))-αMeY-LIK((2-[2-(2-Amino-ethoxy)-ethoxy]-acetyl)2-(γ-Glu)-(10-(4-carboxyphenoxy)decanoyl))GGPSSGAPPPS-NH2
B9: Example 390 (peptide)
peptide: Y[Aib]EGT[αMePhe(2-F)]TSDV[Aib]I[αMeL]LD[Orn]QAQ[Aib]EFIK([AEEA-AEEA-γGlu-C14 diacid])[αMeY]LIK([AEEA-AEEA-γGlu-C14 diacid])GGPSSGAPPPS-NH2
modifications: N-terminus assumed
SMILES: CC[C@H](C)[C@H](NC(=O)[C@H](CC(C)C)NC(=O)[C@](C)(Cc1ccc(O)cc1)NC(=O)[C@H](CCCCNC(=O)COCCOCCNC(=O)COCCOCCNC(=O)CC[C@H](NC(=O)CCCCCCCCCCCCC(=O)O)C(=O)O)NC(=O)[C@@H](NC(=O)[C@H](Cc1ccccc1)NC(=O)[C@H](CCC(=O)O)NC(=O)C(C)(C)NC(=O)[C@H](CCC(N)=O)NC(=O)[C@H](C)NC(=O)[C@H](CCC(N)=O)NC(=O)[C@H](CCCN)NC(=O)[C@H](CC(=O)O)NC(=O)[C@H](CC(C)C)NC(=O)[C@](C)(CC(C)C)NC(=O)[C@@H](NC(=O)C(C)(C)NC(=O)[C@@H](NC(=O)[C@H](CC(=O)O)NC(=O)[C@H](CO)NC(=O)[C@@H](NC(=O)[C@](C)(Cc1ccccc1F)NC(=O)[C@@H](NC(=O)CNC(=O)[C@H](CCC(=O)O)NC(=O)C(C)(C)NC(=O)[C@@H](N)Cc1ccc(O)cc1)[C@@H](C)O)[C@@H](C)O)C(C)C)[C@@H](C)CC)[C@@H](C)CC)C(=O)N[C@@H](CCCCNC(=O)COCCOCCNC(=O)COCCOCCNC(=O)CC[C@H](NC(=O)CCCCCCCCCCCCC(=O)O)C(=O)O)C(=O)NCC(=O)NCC(=O)N1CCC[C@H]1C(=O)N[C@@H](CO)C(=O)N[C@@H](CO)C(=O)NCC(=O)N[C@@H](C)C(=O)N1CCC[C@H]1C(=O)N1CCC[C@H]1C(=O)N1CCC[C@H]1C(=O)N[C@@H](CO)C(N)=O

Assays:
Test in all cases: cell-based or functional assay
[1] = target: T1, human GIP receptor
[2] = target: human GLP-1 receptor (human, UniProt P43220 24-463)
[3] = target: human glucagon receptor (human, UniProt P47871 26-477)
human glucagon receptor, sequence (P47871 26-477): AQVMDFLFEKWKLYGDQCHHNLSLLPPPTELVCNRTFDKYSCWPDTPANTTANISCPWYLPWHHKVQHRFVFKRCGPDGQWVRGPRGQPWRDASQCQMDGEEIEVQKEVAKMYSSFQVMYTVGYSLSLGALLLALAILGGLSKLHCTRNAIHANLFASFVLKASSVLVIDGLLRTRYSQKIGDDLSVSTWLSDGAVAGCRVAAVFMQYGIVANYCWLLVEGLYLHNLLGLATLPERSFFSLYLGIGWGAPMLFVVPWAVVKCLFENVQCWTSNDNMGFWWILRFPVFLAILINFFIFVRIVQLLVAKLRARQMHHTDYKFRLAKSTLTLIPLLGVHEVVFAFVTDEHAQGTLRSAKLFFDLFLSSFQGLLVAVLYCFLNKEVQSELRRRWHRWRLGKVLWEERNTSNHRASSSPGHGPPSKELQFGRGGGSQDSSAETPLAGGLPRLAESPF

Binder | cAMP EC50 (1.0% HSA) [1] | cAMP EC50 (1.0% HSA) [2] | cAMP EC50 (1.0% HSA) [3] | cAMP Emax (1.0% HSA) [1] | cAMP Emax (1.0% HSA) [2]
B1 | 0.57 nM | 7.51 nM | > 9950 nM |  | 
B2 | 12.2 nM | 133 nM | > 9950 nM |  | 
B3 | 0.434 nM | 5.39 nM | > 9950 nM | 83% | 107%
B4 | 0.451 nM | 5.47 nM | > 9950 nM |  | 
B5 | 1.11 nM | 13.5 nM | > 9950 nM | 84.5% | 
B6 | 1.21 nM | 16.8 nM | > 9950 nM |  | 
B7 | 1.3 nM | 18.6 nM | > 9950 nM |  | 
B8 | 0.209 nM | 2.74 nM | > 10100 nM |  | 
B9 | 3.85 nM | 24.3 nM | > 9950 nM | 89.3% | 94.6%
Y[Aib]EGT[αMePhe(2-F)]TSDV[Aib]I[αMeL]LD[Orn]QAQ[Aib]EFIK([AEEA-AEEA-γGlu-Decanoyl(10-(4-HOOC-PhO))])[αMeY]LIK([AEEA-AEEA-γGlu-Decanoyl(10-(4-HOOC-PhO))])GGPSSGAPPPS-NH2 [Example 446] | 5.14 nM | 33.5 nM | > 9950 nM | 97% | 105%
